Measurements: patent publication US20190185562A1 (Regeneron, published 2019)

T1: wild-type human GP130 on HEK293.STAT3.Luc.GP130.hLEPR reporter cells (human, UniProt P40189 23-918)
T1 sequence (looked up): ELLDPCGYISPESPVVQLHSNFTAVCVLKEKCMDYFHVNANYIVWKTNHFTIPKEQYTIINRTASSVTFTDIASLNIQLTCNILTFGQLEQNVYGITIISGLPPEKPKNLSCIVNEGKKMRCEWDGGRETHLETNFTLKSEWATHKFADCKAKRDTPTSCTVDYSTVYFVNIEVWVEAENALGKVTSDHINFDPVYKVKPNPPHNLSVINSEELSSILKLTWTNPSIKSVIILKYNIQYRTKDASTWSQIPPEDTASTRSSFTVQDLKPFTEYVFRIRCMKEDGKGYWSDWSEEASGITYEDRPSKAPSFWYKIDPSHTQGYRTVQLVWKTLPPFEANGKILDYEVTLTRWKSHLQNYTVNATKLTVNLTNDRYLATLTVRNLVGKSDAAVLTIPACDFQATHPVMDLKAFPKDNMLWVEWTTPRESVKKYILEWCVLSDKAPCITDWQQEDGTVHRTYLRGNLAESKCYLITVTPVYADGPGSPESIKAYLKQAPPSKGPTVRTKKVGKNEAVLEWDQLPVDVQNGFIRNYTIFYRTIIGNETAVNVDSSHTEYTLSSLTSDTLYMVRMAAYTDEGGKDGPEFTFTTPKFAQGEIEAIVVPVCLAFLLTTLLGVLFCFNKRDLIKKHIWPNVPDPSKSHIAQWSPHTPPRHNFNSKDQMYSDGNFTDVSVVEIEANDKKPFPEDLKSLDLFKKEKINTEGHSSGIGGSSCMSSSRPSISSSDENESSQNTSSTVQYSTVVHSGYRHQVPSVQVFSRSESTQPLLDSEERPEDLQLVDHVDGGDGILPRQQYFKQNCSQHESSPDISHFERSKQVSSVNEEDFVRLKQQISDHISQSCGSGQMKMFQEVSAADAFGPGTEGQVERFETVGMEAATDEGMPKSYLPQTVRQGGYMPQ

T2: mutant human LEPR (Y1141F) on HEK293.STAT3.Luc.GP130.hLEPR (Y1141F) cells (human, UniProt P48357 22-1165)
T2 sequence (looked up): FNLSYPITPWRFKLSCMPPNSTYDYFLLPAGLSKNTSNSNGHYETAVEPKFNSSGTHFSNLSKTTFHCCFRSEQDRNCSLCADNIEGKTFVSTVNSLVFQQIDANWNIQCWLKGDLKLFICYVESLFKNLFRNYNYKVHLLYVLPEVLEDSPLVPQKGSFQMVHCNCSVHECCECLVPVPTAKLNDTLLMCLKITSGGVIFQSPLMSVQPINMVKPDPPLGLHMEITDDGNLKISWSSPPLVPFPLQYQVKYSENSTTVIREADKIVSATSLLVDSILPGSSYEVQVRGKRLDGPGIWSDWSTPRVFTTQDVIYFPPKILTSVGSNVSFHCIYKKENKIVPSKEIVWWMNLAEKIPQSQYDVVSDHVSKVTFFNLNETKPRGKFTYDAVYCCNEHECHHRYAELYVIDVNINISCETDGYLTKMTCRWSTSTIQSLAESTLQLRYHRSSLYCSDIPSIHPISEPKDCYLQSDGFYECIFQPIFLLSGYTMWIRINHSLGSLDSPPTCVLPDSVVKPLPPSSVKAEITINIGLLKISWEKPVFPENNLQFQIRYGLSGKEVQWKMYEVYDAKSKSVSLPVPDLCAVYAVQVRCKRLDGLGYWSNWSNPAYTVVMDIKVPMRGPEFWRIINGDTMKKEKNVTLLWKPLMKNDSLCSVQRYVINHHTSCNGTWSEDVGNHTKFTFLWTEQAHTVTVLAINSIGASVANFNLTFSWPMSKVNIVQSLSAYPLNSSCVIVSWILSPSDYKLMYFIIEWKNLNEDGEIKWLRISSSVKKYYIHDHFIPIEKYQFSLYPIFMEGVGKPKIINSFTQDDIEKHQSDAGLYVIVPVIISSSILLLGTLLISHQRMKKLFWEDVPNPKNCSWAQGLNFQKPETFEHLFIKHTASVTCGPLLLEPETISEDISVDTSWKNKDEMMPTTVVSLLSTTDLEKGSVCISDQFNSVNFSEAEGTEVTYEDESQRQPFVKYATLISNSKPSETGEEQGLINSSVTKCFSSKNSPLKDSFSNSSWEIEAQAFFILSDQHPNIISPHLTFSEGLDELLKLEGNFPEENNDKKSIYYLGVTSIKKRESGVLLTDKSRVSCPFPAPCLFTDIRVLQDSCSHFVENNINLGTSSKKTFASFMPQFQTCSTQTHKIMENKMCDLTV

T3: extracellular domain of human LEPR, GPI-anchored on HEK293/hLEPR-GPI cells (human, UniProt P48357 22-839, GPI anchor at the C-terminus ; GPI anchor at the C-terminus, added through the carboxypeptidase M signal peptide. The protein is displayed on the HEK293 cell membrane.)
T3 sequence: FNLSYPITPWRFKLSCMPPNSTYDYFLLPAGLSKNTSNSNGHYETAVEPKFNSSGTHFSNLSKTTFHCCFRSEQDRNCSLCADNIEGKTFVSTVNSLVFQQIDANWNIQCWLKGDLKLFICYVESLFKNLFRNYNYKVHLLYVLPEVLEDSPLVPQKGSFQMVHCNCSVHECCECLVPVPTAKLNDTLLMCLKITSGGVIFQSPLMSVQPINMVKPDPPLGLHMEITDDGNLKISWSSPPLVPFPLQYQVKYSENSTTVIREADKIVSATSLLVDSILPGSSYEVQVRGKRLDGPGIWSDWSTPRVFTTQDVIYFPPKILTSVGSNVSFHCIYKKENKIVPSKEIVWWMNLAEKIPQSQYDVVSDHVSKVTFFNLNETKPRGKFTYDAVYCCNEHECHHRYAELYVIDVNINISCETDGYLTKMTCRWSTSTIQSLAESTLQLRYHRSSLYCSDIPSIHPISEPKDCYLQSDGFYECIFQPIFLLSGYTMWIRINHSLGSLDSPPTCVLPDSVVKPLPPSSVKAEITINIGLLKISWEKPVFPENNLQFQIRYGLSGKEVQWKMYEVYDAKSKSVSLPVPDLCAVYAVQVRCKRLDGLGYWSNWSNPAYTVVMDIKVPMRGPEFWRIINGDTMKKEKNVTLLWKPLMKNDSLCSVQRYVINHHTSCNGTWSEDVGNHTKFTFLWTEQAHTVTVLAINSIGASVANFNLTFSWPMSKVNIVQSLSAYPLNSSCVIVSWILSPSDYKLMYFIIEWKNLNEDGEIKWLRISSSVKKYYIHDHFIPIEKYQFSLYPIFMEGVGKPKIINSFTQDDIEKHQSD

T4: full length human GP130 (leucine at position 2 changed to valine) on HEK293/Stat3-luc/gp130-2X Sort cells (human, UniProt P40189 23-918)
T4 construct: whole, on cells; also called HEK293/gp130 2X Sort
T4 sequence (looked up): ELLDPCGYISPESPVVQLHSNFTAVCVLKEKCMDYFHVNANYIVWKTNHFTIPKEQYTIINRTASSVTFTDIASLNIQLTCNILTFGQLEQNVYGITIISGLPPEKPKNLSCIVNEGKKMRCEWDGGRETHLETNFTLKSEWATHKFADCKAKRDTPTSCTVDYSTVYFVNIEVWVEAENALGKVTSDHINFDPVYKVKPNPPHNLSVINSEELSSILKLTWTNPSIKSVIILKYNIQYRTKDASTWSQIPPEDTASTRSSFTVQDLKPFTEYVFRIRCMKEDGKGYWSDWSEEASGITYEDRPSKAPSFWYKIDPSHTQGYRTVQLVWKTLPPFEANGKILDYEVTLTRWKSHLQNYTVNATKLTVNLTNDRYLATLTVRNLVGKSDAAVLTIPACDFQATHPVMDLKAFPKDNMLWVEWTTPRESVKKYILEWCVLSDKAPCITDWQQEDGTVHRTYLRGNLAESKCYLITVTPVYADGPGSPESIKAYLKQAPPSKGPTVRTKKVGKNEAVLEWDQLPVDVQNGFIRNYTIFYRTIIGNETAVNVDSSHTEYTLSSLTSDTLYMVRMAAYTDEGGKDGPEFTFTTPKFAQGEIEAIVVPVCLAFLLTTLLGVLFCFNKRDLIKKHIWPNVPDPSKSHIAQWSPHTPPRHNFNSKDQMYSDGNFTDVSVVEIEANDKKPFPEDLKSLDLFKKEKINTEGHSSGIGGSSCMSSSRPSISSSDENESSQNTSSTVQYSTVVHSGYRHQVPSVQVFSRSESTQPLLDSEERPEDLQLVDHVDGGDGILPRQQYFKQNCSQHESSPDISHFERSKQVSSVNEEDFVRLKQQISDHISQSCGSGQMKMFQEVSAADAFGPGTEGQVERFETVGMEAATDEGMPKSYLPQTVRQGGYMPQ

B1: bsAb21236D (bispecific antibody, V domains shown)
VH 1: QVQLQESGPGLVKPSQTLSLTCTVSGGSISSGGDYWSWIRQLPGKGLEWIGYIYYSGSAYYNPSLKSRGTISIDTSKNQFSLKLTSVTAADTAVYFCVKLRFLEWFLGGWFGPWGQGTLVTVSS
VH 2: QVQLVESGGGLVKPGGSLRLSCAASGFTFSDYYMTWIRQTPGKGLDWVSYISSSGTNKYNADSVKGRFTISRDNAKNSLYLQMNSLRAEDTAVYYCVRDPPWGMDVWGQGTTVTVSS
VL: not shown
notes: LEPR x GP130 bispecific with common light chain; also called H4H21236D; bsAb21236 (LEPR × GP130)
B2: bsAb21237D (bispecific antibody, V domains shown)
VH 1: EVQLVESGGGLVQPGGSLRLSCAASGFTFSNYGMTWVRQAPGKGLEWVSAITGGGGSTYYSNSVKGRFTISRDNSKNTVYLRMNSVRAEDTAVYYCAKYKWNFVDDWGQGTTVTVSS
VH 2: QVQLVESGGGLVKPGGSLRLSCAASGFTFSDYYMTWIRQTPGKGLDWVSYISSSGTNKYNADSVKGRFTISRDNAKNSLYLQMNSLRAEDTAVYYCVRDPPWGMDVWGQGTTVTVSS
VL: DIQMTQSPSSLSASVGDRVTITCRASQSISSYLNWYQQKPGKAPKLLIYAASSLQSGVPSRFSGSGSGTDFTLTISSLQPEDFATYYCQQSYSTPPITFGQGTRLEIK
notes: LEPR x GP130 bispecific with common light chain; also called H4H21237D; bsAb21237 (LEPR × GP130)
B3: bsAb21236D (bispecific antibody, V domains shown)
VH 1: QVQLQESGPGLVKPSQTLSLTCTVSGGSISSGGDYWSWIRQLPGKGLEWIGYIYYSGSAYYNPSLKSRGTISIDTSKNQFSLKLTSVTAADTAVYFCVKLRFLEWFLGGWFGPWGQGTLVTVSS
VH 2: QVQLVESGGGLVKPGGSLRLSCAASGFTFSDYYMTWIRQTPGKGLDWVSYISSSGTNKYNADSVKGRFTISRDNAKNSLYLQMNSLRAEDTAVYYCVRDPPWGMDVWGQGTTVTVSS
VL: not shown
notes: LEPR x GP130 bispecific antibody; also called H4H21236D

What was measured:
[1] = target: T1, wild-type human GP130 on …; experiment: cell-based or functional assay
[2] = target: T2, mutant human LEPR (Y1141F) on …; experiment: cell-based or functional assay
[3] = target: T3, extracellular domain of human LEPR, …; experiment: FACS, 200 nM antibody, HEK293/hLEPR-GPI cells, No Leptin
Protocol: (§1) For the FACS analysis, 0.5×10^6 cells/well of HEK293 parental cells, HEK293/Stat3-luc/gp130-2X Sort cells, and HEK293/hLEPR-GPI cells, were incubated with 200 nM of the conventional antibodies against either GP130 or LEPR or with LEPR×GP130 bispecific antibodies, along with isotype control antibodies at 4° C. in PBS (without calcium and magnesium) containing 2% FBS.
(§2) Cells were fixed using BD CytoFix™ (Becton Dickinson, #554655) and analyzed on an IQue® (Intellicyt) Flow Cytometer. Unstained and secondary antibody alone controls were also tested for all cell lines. The results were analyzed using ForeCyt® (IntelliCyt) and FlowJo version 10 softwares to determine the geometric means of fluorescence for viable cells.

[4] = target: T3, extracellular domain of human LEPR, …; experiment: FACS, 200 nM antibody, HEK293/hLEPR-GPI cells, 1 µM Leptin present
Protocol: as §1, §2

[5] = target: T4, full length human GP130 (leucine at …); experiment: FACS, 200 nM antibody, HEK293/gp130 2X Sort cells
Protocol: as §1, §2

[6] = target: T5, human LEPR extracellular domain expressed with a C-terminal myc-myc-hexahistidine tag (human, UniProt P48357 22-839); experiment: SPR (Biacore 4000), antibody captured by anti-human Fc, 25 C
T5 construct: Monomeric reagent; the entry named is the whole tagged construct; also called hLEPR-MMH; hLEPR.mmh

Binder	EC50 (M), STAT3-luciferase activation of HEK293.STAT3.Luc.GP130.hLEPR (Y1141F) cells, 10 nM leptin [1]	Percentage activation as compared to hOSM [1]	Percentage activation as compared to hOSM [2]	Binding Ratio: Normalized to Unstained Sample of Each Cell Line (FL4-A) [3]	Binding Ratio: Normalized to Unstained Sample of Each Cell Line (FL4-A) [4]	Binding Ratio: Normalized to Unstained Sample of Each Cell Line (FL4-A) [5]	100 nM hLEPR-MMH Bound (RU) [6]
B1	2.11e-09 M	25%	25%	4420 ratio	3600 ratio	132 ratio	
B2	2.46e-09 M	20%	20%	6320 ratio	5930 ratio	169 ratio	
B3							8 RU
